Key:
[1] = molecular target: sigma70-RNA polymerase holoenzyme (UniProt P0A7Z4+P0A8V2+P0A8T7+P0A800+P00579); assay: EMSA; details: 1x Transcription buffer (composition in cited ref 50), 37 C, 1 pmol DNA, 10 min then 30 min with protein; 5% PAGE in 1xTBE; purified CRP +/-200 uM cAMP …
CRP (purified) = assay: EMSA; details: 1x Transcription buffer (composition in cited ref 50), 37 C, 1 pmol DNA, 10 min then 30 min with protein; 5% PAGE in 1xTBE; purified CRP +/-200 uM cAMP …

Substance	binding [1]	binding signal (fold vs no cAMP) (CRP (purified))
ATTTAACGGCAGCAAGGCTATTCAGCAGTTCGTTCGGGTCAATACCGTCAGCGATCAGCATTTCGCGATATTGCTGCAGTTTACGAGTGCGCTCTTCAACTTC (double strand) [hns internal region without promoters]	no binding	–
yihU/V intergenic region	–	1.3
yihV/W intergenic region	–	1.3

Source: publication PMC5816610
